B1: M61 (antibody)
chain: MAELDIKITQSPASLSASVGETVTITCRASENIYSYLAWYQQKQGKSPQLLVYNAKTLAEGVPSRFSGSGSGTQFSLKINSLQPEDFGSYYCQHHYGTPYTFGGGTKLELKSSGGGGSGGGGGGSSRSSLEVQLQQSGAELVKPGASVKMSCKAFGYTFTTYPIEWMKQNHGKSLEWIGNFHPYNDDTKYNEKFKGKAKLTVEKSSSTVYLELSRLTSDDSAVYYCARRNDGYYGAMDYWGQGTSVTVSSAKTTAPSVTSAAAGAPVPYPDPLEPRAA
B2: H32 (antibody)
chain: DIQMTQSPSSLSASVGDRVTITCKASQNVGTAVAWYQQKPGKAPKLLIYSASNRYTGVPSRFSGSGSGTDFTLTISSLQPEDFATYYCQQYSSYPLAFGQGTKVEIKRGGGGSIEGRSGGGGSEVQLVESGGGLVQPGGSLRLSCKASGFNIKDYFMYWVRQAPGKGLEWVGWIDPENGNTIYDPKFQGRFTISADTSKNTAYLQMNSLRAEDTAVYYCTRGYYGSRVLAMDYWGQGTLVTVSSASAAA
notes: also called antibody H32
B3: M41 (antibody)
chain: MAELDIQMTQTTSSLSASLGDRVTISCRTSQDISNYLNWYQQKPNGTIKLLIYYTSGLYSGVPSRFSGSGSGADYSLTISNVEQEDIATYFCQQVNTLPYTFGGGTKLELKSSGGGGSGGGGGGSSRSSFEVQLQQSGAELVKPGASVKMSCKAFGYTFTTYPIEWMKQNHGKSLEWIGNFHPYNDYTNYNEKFKGKAKLTVEKSSTTVYLELSRLTSDDSAVYYCARRHDGYYGAMDYWGQGTSVTVSSAKTTAPSVTSAAAGAPVPYPDPLEPRAA
notes: also called antibody M41
B4: M64 (antibody)
chain: MAELDIQMNQSHKFMSTSVGDRVSITCKASQDVSTAVAWYQQKPGQSPKLLIYWASTRHTGVPGRFTGSGSGADYTLTISSVQAEDLALYYCQQHYSTPYTFGGGTKLEIKSSGGGGSGGGGGGSSRSSLEVQLQQSGAELVKPGASVKLSCTASGFNIKNTYMHWVKQRPEQGLEWIGRIDPANGNTKYDPKLQGKATITADTSSNTAYLHLSSLTSEDTAVYYCVPYYRGAMDYWGQGTSVTVSSESQSFPNVTSAAAGAPVPYPDPLEPRAA
B5: M63 (antibody)
chain: MAELDAVVTQESALTTSPGETVTLTCRSSTGTVTTSNYANWVQEKPDHLFTGLIGGTKNRAPGVPARFSGSLIGDKAALTITGAQTEDEAIYFCALWYSNHWVFGGGTKLTVLGSSGGGGSGGGGGGSSRSSLEVQLQQSGPELVRPGDSVKISCKASGYTFSDYAVHWVKRSHGKSLEWIGVISIYYDNINYNQNFKGKATMTVDKSSSTAYLELARLTSEDSAIYYCARRGFDYWGPGTTLTVSSAKTTAPSVTSAAA
B6: M32 (antibody)
chain: MAELGIELTQSQKFMSTSVGDRVSITCKASQNVGTAVAWYQQKPGQSPKLLIYSASNRYTGVPDRFTGSGSGTDFTLTISNMQSEDLADYFCQQYSSYPLAFGGGTKLEIKSSGGGGSGGGGGGSSRSSLEVQLVESGAELVRPGALVKLSCKASGFNIKDYFMYWVKQRPEQGLEWVGWIDPENGNTIYDPKFQGKASITADTSSNTAYLQLSSLTSEDTAVYYCTRGYYGSRVLAMDYWGQGTSVTVSSAKTTPPSVTSAAA
notes: also called antibody M32
B7: M62 (antibody)
chain: MAELDIQMIQSQKFMSTSVGDRVSVTCKASQNVGTNVAWYQQKPGQSPKALIHSASYRYSGVPDRFTGSGSGTDFTLTISNVQSEDLAEYFCQQYNSYPLTFGAGTKLEIKSSGGGGSGGGGGGSSRSSLEVQLQQSGTELARPGASVKLSCKASGYTFIDYYITWVKQRTGQGLEWIGEIYPGGGNPYYNDNFKGKASLTADKSSNTVYMQLSSLTSEDSAVYFCARSYKYDVSVYWGQGTLVTVSAAKTTPPSVTSAAAGAPVPYPDPLEPRAA
notes: also called antibody M62

Molecular target: T1, polypeptide HER2/ECD (human, UniProt P04626 23-646)
Assay: ELISA, IgG on immobilized HER2/ECD
Protocol: The EC₅₀ of antibody was determined by titrating the antibody on immobilized HER2/ECD with ELISA. Briefly, NUNC 96-well Maxisorb immunoplates were coated with HER2/ECD peptides (0.2 μg per well) in PBS buffer (pH 7.4) via overnight incubation at 4° C., the plates were then blocked with 5% skim milk in PBST [0.05% (v/v) Tween 20] for 1 h. In the meantime, twofold serial dilutions of the antibody in PBST with 5% milk were performed and 11 different concentrations of the antibody were generated. After blocking, 100 μL diluted antibody samples were added to each well, and incubated for 1 h under gentle shaking. The plate was washed 6 times with 300 μL PBST and then added with 100 μL 1:2000-diluted horse-radish peroxidase/anti-human IgG antibody conjugate in PBST with 5% milk for 1 h incubation. The plates were washed 6 times with PBST buffer and twice with PBS, developed for 3 min with 3,3′,5,5′-tetramethyl-benzidine peroxidase substrate (Kirkegaard & Perry Laboratories), quenched with 1.0 M HCl and read spectrophotometrically at 450 nm.

| Binder | EC50 [ng/mL] |
| --- | --- |
| B1 | 3.5 |
| B2 | 3.2 |
| B3 | 3.4 |
| B4 | 3.1 |
| B5 | 2.4 |
| B6 | 3.1 |
| B7 | 2 |

Molecular target: T1, polypeptide HER2/ECD
Assay: SPR (BIAcore), HER2/ECD immobilized, IgG in flow
Protocol: BIAcore T200 (GE Healthcare) instrument was used to determine the binding affinities and kinetic parameters for interactions between antibody and antigen HER2/ECD. HER2/ECD in 10 mM acetate buffer (pH 5.0) was immobilized on a CM5 sensor chip to a response unit (RU) of 1000 with an amine coupling kit. Association (kₒₙ) and dissociation (koff) constants of the interactions between IgGs and HER2/ECD were measured in PBST running buffer (0.05% Tween 20) with a flow rate of 30 μL/min. […] Binding kinetics was determined by global fitting to 1:1 binding model using the Biaevaluation software (GE Healthcare).

| Binder | Kd [nM] | koff [s⁻¹] | kon [M⁻¹ s⁻¹] |
| --- | --- | --- | --- |
| B1 | 0.591 | 0.0024 | 4.06e+06 |
| B2 | 0.242 | 3.85e-05 | 159000 |
| B3 | 0.0519 | 3.48e-05 | 671000 |
| B4 | 0.195 | 0.000337 | 1.74e+06 |
| B5 |  | 7.34e-05 |  |
| B6 | 0.243 | 7.15e-05 | 294000 |
| B7 | 0.0228 | 1.8e-05 | 788000 |
